The supplement of paper PMC9170038

Tested on: MS2 coat protein
Assay: apparent KD of MS2 coat protein; designed switch direction (-1 OFF switch, 1 ON switch): -1; higher = weaker reporter binding
Procedure, shortened: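 For each design, the apparent KD is the median over clusters of curves fitted to normalised cluster fluorescence. Clusters held RNA switches with common flanks, transcribed on Illumina chips by stalled E. coli RNA polymerase. These were titrated with SNAP-549-labelled MS2 coat protein, doubling from 0.7 or 1.5 nM to 3 µM, without input, with 200 uM small-molecule ligand, or with an oligonucleotide input.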

[1] = Eterna round: R95, input ligand: FMN 200 uM
[2] = Eterna round: R95, input ligand: microRNA oligo, concentration not stated
[3] = Eterna round: R95, input ligand: none
[4] = input ligand: microRNA oligo, concentration not stated

| Sequence | apparent KD of MS2 coat protein [1] [nM] | apparent KD of MS2 coat protein [2] [nM] | apparent KD of MS2 coat protein [3] [nM] | apparent KD of MS2 coat protein (input ligand: FMN 200 uM) [nM] | apparent KD of MS2 coat protein (input ligand: none) [nM] | apparent KD of MS2 coat protein [4] [nM] |
| --- | --- | --- | --- | --- | --- | --- |
| CUGAGCAGACGGAGAUCCAACAUGAGGAUCACCCAUGUCUCAAAAGCUUUUUGCUUGUCUUACCCUCCUCUGUUCUC [Isceeren] (puzzle: Sensor v3, turn-off variant 1) | 18.1 | 122 | 15.7 |  |  |  |
| CUGAGCAGACGGAGAUCCAACAUGAGGAUCACCCAUGUCUCAUAAGCUUUUUGCUCAUCUUAUUGUACCUUGGUGCU [JL ViennaUCT Edcesobi mod 3] (puzzle: Sensor v3, turn-off variant 1) | 275 | 14.4 | 323 |  |  |  |
| CUGAGUAGAGGAUAUACAUGAGGAUCACCCAUGUAAAGUAGCUUGCGUACAGGCAGAUGUAGAAGGUUAUUCGG [Mod of JL 13 - Jieux - Exclusion 3] (Eterna round: R97, puzzle: Exclusion 3) |  |  |  | 53.1 | 50.9 |  |
| CUGAUGUCAGGAUAUCAGAAAAGGCGCAAGGACACGCCAAAUGAGAAGGGACAUGAGGAUCACCCAUGUAAAAC [Orata] (puzzle: Exclusion 4) | 107 | 20.8 | 18.1 |  |  |  |
| CUGAUGUUAGGAUAUCAGGCGCCCGCCACUGGCAAAGCGCAUGAGAAGGGACAUGAGGAUCACCCAUGUAGUAA [Ussoisrebe] (puzzle: Exclusion 4) |  | 27.7 |  |  |  |  |
| CUGCUCCGUGUAGGAUAUGCAUACAACCAAUAUGCAGAAGGACAUGAGGAUCACCCAUGUAUGUUAUUAUCACGUGAAGCGUCC [Design 20] (Eterna round: R96, puzzle: Exclusion NG 1) |  |  |  |  |  | 16.8 |
| CUGCUCCGUGUAGGAUAUGCAUACUCCCAUUAUGCAGAAGGACAUGAGGAUCACCCAUGUAUGUUAUUAUCAUGUGUUGCGUAC [Design 13] (Eterna round: R96, puzzle: Exclusion NG 1) |  |  |  | 250 | 38.5 | 29.5 |
| CUGCUCCGUGUAGGAUAUGCGCGCAACCAACGCGCAGAAGGACAUGAGGAUCACCCAUGUAUGUUAUUAUCACGUGAAGCGCAA [Design 31] (Eterna round: R96, puzzle: Exclusion NG 1) |  |  |  | 16 | 13.2 | 12.3 |
| CUGGACAGAGGAUAUUGUGCUGCUGACAUGAGGAUCACCCAUGUAUGUUAACUCGGCCGUCGAGAAGGCUGACAGG [BotMod 17 - Jieux - Exclusion 5] (Eterna round: R97, puzzle: Exclusion 5) |  |  |  | 14.3 | 19.2 |  |
| CUGGGUCGUGUUAGGAUAUGCUCUAGAAAGUUAGGGUAGAAGGAACAUGAGGAUCACCCAUGUGACUUCACUAG [BmEX4 B.27] (Eterna round: R97, puzzle: Brourd's mod of Exclusion 4) |  |  |  | 23.6 | 15.4 |  |
| CUGGUCCGAGGAUAUAUUAAGUGAUACAUGAGGAUCACCCAUGUAAUUUGAUGGAAAUAAAUAGAAGGCGGACUAG [Mat - Exclusion 5 - JL mod - D44] (puzzle: Exclusion 5) | 34.2 | 45.9 | 53.4 |  |  |  |
| CUGGUCCGAGGAUAUAUUAUGUGAUACAUGAGGAUCACCCAUGUUAUAUGAUGGAUGUUAGUAGAAGGCGGACUAG [JL-ex5-3.21] (puzzle: Exclusion 5) | 102 | 57.3 | 59.9 |  |  |  |
| CUGGUGUGAGGAUAUCAGGGCGCGCCCAAGGGCACGCCAAAUGAGAAGGCACAUGAGGAUCACCCAUGUGGGAC [Erzala] (puzzle: Exclusion 4) | 45.6 | 31.4 | 35.3 |  |  |  |
| CUGUACUAAGGAUAUACAUGAGGAUCACCCAUGUCGAUGGUAGGCUGACCGUGACUCCGUAGAAGGUAGAUUCC [Eternabot (L1) Solution 77] (Eterna round: R97, puzzle: Exclusion 3) |  |  |  | 100 | 81.5 |  |
| CUGUACUGAGGAUAUACAUGAGGAUCACCCAUGUUCUUCAGCUAGGAAACUAGCAAAGGUAGAAGGCAGUACAG [Mat - Exclusion 3 - Eli Mod - D69] (Eterna round: R97, puzzle: Exclusion 3) |  |  |  | 784 | 34.3 |  |
| CUGUGCACGCUGCGGUCCUACAUGAGGAUCACCCAUGUGGUCUGGUGGCGUGGGUCACCGGACUUGGCUCGUCUUGA [salish99_S_TOV1_R5_065] (Eterna round: R97, puzzle: Sensor, turn-off variant 1) |  |  |  | 44.8 | 49.3 |  |
| CUGUUCCAUGUAGGAUAUGCAUAUUCUCAUUAUGCAGAAGGACAUGAGGAUCACCCAUGUAUGUUAUUAUUAUAUGUUACAUGU [Design 3] (Eterna round: R96, puzzle: Exclusion NG 1) |  |  |  | 633 | 64.9 | 47.7 |
| CUUAGCCUAAAAUCACGCAAGCUCUUUGCUUGUCUUAAGACAUGAGGAUCACCCAUGUCCGGGCUGAACUUAUGGAA [Qugegele] (puzzle: Sensor v3, turn-off variant 2) | 19.9 | 24.9 | 21 |  |  |  |
| CUUAGCCUAAAAUCACGCAAGCUUUCUGCUUGUCUUAAGACAUGAGGAUCACCCAUGUCCGGGCUGAACUUAUGGAA [Inve] (puzzle: Sensor v3, turn-off variant 2) | 18.8 | 22.5 |  |  |  |  |
| CUUAGCCUAAAAUCACGCAAGCUUUUCGCUUGUCUUAAGACAUGAGGAUCACCCAUGUCCGGGCUGAACUUAUGGAA [Esenma] (puzzle: Sensor v3, turn-off variant 2) | 18.3 | 19.2 | 18.5 |  |  |  |
| CUUAUGUAAGGAUAUGCCUGGCCGUGAGGCCAAAUUGAAUAGCAGAAGGUACAUGAGGAUCACCCAUGUACGGG [jl-ex4-4.63 ViennaUCT mod] (Eterna round: R97, puzzle: Exclusion 4) |  |  |  | 325 | 364 |  |
| CUUAUGUCAGGAUAUUAGUAGUAAAUGAAUAAAAUUAUUACUGAGAAGGGACAUGAGGAUCACCCAUGUUCCUC [Mat - Exclusion 4 - Eli Mod - D4] (Eterna round: R97, puzzle: Exclusion 4) |  |  |  | 149 | 19.6 |  |
| CUUAUGUGAGGAUAUGCCUGGCCGUGAGGCCAAAUUGAAUUGCAGAAGGCACAUGAGGAUCACCCAUGUGCGGG [jl-ex4-4.66 ViennaUCT mod] (Eterna round: R97, puzzle: Exclusion 4) |  |  |  | 201 | 50.2 |  |
| CUUCGACAUGAGGAUCACCCAUGUCAGGAUAUUGUGUAUCGGGUUUUUUACGGAAAGGCGAGAAGGGAUGUGUG [LRO-Excl1-09] (puzzle: Exclusion 1) |  | 22 |  |  |  |  |
| CUUCGUAAUGUCAGGAUAUUUUCGAGGGCAACUCAAAAGAAGGGACAUGAGGAUCACCCAUGUGGCAACGUCAU [Eternabot (L2) Solution 83] (Eterna round: R97, puzzle: Brourd's mod of Exclusion 4) |  |  |  | 177 | 51.9 |  |
